This data set concerns the molecule itself. Put plainly: negative-stain electron microscopy of filaments on vesicles.

B1: Vps60 (natural protein)
chain: MNRIFGYGNKKSHDQLLQESNQSMNQAQQSLSNRISQLDTQIAQLNFQLQNIQKNLQRSNNKQPSLRKQALKILNKRKQLENMKDSLDSQSWSMTQAQLTNDNLQNTMITINALKQTNNAMKAQYGKINIDKLQDMQDEMLDLIEQGDELQEVLAMNNNSGELDDISDAELDAELDALAQEDFTLPTSENSLGNDMPSYLLGANAPPAFIDEEPNLDTEDKNKALESAQ
modifications: Atto-565 (TFP ester labelling) where fluorescence was read; labeled protein mixed 1:1 with unlabeled protein
With B1, the binding result is reported as “binds”.

(Values after publication doi:10.1101/2022.02.16.480668 (bioRxiv, 2022).)
